In US20050282743A1, “Molecular interactions in cells” (Arbor Vita Corporation, priority 2001, published 2005):

What was measured:
[1] = biological target: T1, GST-LIM Protein PDZ domain 1 (Homo sapiens (Human)), Q96HC4; test: G assay titration, PDZ 1 ug/ml
T1 chain: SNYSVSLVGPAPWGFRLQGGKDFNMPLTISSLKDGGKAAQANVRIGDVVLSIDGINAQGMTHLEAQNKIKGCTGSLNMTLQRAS

[2] = biological target: GST-KIAA1634 PDZ domain 5 (Homo sapiens (Human)), Q5TCQ9; test: G assay titration, PDZ 1 ug/ml
[3] = biological target: T2, GST-TIP1 PDZ domain 1 (Table 9 insert) (Homo sapiens (Human)), O14907; test: G assay titration, PDZ 0.5 ug/ml
T2 chain: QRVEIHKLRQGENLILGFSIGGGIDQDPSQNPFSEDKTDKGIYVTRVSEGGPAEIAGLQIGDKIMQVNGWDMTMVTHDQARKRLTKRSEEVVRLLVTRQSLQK

[4] = biological target: T3, GST-Connector Enhancer PDZ domain 1 (Homo sapiens (Human)), Q969H4; test: G assay titration, PDZ 5 ug/ml
T3 chain: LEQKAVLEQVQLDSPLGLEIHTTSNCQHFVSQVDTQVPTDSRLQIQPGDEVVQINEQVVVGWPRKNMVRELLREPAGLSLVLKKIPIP

[5] = biological target: T4, GST-FLJ 10324 PDZ domain 1 [GST: P08515]; test: G assay titration, PDZ 5 ug/ml
T4 chain: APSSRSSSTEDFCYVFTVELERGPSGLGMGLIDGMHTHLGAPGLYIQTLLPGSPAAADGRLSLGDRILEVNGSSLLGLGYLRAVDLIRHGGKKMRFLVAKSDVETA

[6] = biological target: GST-BAI-1 Associated Protein PDZ domain 4 (Homo sapiens (Human)), Q96QZ7; test: G assay titration, PDZ 0.3 ug/ml
GST-BAI-1 Associated Protein PDZ domain 4 (Homo sapiens (Human)), Q96QZ7, sequence (Q96QZ7 other isoform, or with tags, fused parts or gaps): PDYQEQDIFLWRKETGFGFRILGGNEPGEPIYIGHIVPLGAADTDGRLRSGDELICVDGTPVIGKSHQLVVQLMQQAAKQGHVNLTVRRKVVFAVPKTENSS

[7] = biological target: GST-BAI-1 Associated Protein PDZ domain 2 (Mus musculus (Mouse)), Q6RHR9; test: G assay titration, PDZ 0.3 ug/ml
GST-BAI-1 Associated Protein PDZ domain 2 (Mus musculus (Mouse)), Q6RHR9, sequence (Q6RHR9 455-558): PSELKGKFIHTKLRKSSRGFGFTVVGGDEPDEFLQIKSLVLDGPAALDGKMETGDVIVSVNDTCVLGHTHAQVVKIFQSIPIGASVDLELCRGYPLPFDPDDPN

[8] = biological target: T5, GST-DLG1 PDZ domain 2 (Homo sapiens), Q12959; test: G assay titration, PDZ 0.3 ug/ml
T5 chain: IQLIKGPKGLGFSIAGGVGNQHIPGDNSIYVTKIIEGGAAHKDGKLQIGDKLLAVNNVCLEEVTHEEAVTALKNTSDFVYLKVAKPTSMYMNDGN

[9] = biological target: GST-BAI-1 Associated Protein PDZ domain 3 (Homo sapiens (Human)), Q96QZ7; test: G assay titration, PDZ 0.5 ug/ml
GST-BAI-1 Associated Protein PDZ domain 3 (Homo sapiens (Human)), Q96QZ7, sequence (Q96QZ7 other isoform, or with tags, fused parts or gaps): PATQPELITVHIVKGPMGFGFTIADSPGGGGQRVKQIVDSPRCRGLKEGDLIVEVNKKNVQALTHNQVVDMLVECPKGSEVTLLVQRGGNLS

[10] = biological target: T6, GST-DLG2 PDZ domain 2 (Homo sapiens (Human)), Q15700; test: G assay titration, PDZ 0.5 ug/ml
T6 chain: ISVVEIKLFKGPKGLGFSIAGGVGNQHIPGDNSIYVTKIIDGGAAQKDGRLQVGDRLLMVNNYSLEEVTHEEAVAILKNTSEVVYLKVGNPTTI

[11] = biological target: GST-Atrophin-1 Interacting Protein PDZ domain 1 (Rattus norvegicus (Rat)), O88382; test: G assay titration, PDZ 0.5 ug/ml
GST-Atrophin-1 Interacting Protein PDZ domain 1 (Rattus norvegicus (Rat)), O88382, sequence (O88382 408-511): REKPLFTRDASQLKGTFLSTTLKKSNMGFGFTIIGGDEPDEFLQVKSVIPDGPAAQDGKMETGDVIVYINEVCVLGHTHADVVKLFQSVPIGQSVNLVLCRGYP

[12] = biological target: GST-DLG1 PDZ domain 1 (Homo sapiens), Q12959; test: G assay titration, PDZ 0.5 ug/ml
[13] = biological target: T7, GST-APXL-1 PDZ domain 1 (Homo sapiens (Human)), Q13796; test: G assay titration, PDZ 0.5 ug/ml
T7 chain: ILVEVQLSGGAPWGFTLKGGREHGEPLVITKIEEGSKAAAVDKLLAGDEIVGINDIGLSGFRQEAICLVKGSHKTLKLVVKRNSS

[14] = biological target: T8, GST-TIP-1 (Example 3) (human), O14907; test: ratio of G assay Kd values
T8 chain: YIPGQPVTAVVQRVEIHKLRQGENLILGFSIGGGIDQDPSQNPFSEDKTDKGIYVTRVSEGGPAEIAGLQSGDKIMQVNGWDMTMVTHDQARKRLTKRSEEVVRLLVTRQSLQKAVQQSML

[15] = biological target: T4, GST-FLJ 10324 PDZ domain 1 [GST: P08515]; test: G assay titration, PDZ 1 ug/ml

GST-KIAA1634 PDZ domain 5 (Homo sapiens (Human)), Q5TCQ9, sequence (Q5TCQ9 other isoform, or with tags, fused parts or gaps): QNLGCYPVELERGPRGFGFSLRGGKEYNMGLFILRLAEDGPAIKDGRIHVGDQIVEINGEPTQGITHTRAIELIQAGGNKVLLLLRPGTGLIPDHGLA

B1: a-actinin 2 (peptide)
peptide: VPGALDYAAFSSALYGESDL
modifications: not checked
Kd [1]: 2000 nM
Kd [2]: 2000 nM
Kd [3]: 1000 nM

B2: AdenoE4 typ9 (peptide)
peptide: VGTLLLERVIFPSVKIATLV
modifications: not checked
Kd [4]: 100 nM
Kd [5]: 100 nM
Kd [6]: 100 nM
Kd [7]: 20 nM
Kd [8]: 30 nM
Kd [9]: 75 nM
Kd [10]: 50 nM
Kd [11]: 20 nM
Kd [12]: 100 nM

B3: KIA 1481 (peptide)
peptide: PIPAGGCTFSGIFPTLTSPL
modifications: not checked
Kd [13]: 600 nM

B4: TAX (peptide)
peptide: QISPGGLEPPSEKHFRETEV
modifications: not checked
fold stronger binding than CD95 [14]: > 3000 fold

B5: MINT-1 (peptide)
peptide: KTMPAAMYRLLTAQEQPVYI
modifications: not checked
Kd [15]: 1000 nM
